Patent publication US20180155451A1 (published 2018)
Each block holds one binder with its values, some of them ahead of it.

How the values were obtained:
[1] = target: T1, FcγRIa extracellular domain with C-terminal His tag (human, UniProt P12314 16-292); assay: SPR (Biacore); He/Con_1a divided by He/Con_2b (FcγRIIb)
T1 construct: extracellular domain; Soluble receptor expressed in FreeStyle293 cells; analyte in Biacore; also called FcgRI; FcgRIa; not shown: His tag at the C terminus
Description: (§1) The heterodimerized antibodies He Abs in which one of the H chains was introduced with an alteration were assayed for their binding activities to each activating FcγR and inhibitory FcγR according to the method described in Example 4. […] The activating FcγRs in FIGS. 26, 27, 28, and 29 are FcγRIa, FcγRIIa (R), FcγRIIa (H), and FcγRIIIa, respectively.
(§2) Analysis of interaction between objective antibody and the FcγR was carried out using Biacore T100 (GE Healthcare). HBS-EP+ (GE Healthcare) was used as the running buffer, and the measurement temperature was set to 25° C. Chips produced by immobilizing the antigen peptide by the amine coupling method to a Series S Sencor Chip CM5 (GE Healthcare), or alternatively, chips produced by allowing preliminarily biotinylated antigen peptides to interact with and immobilize onto a Series S Sensor Chip SA (certified) (GE Healthcare) were used. Antibodies of interest were captured onto an antigen peptide-immobilized chip, and allowed to interact to each FcγR diluted with running buffer. To regenerate and repeatedly use the chip, the antibodies captured on the chip were washed off by reacting 10 mM glycine-HCl, pH 1.5.

[2] = target: T1, FcγRIa extracellular domain with …; assay: SPR (Biacore), antibody captured on antigen peptide chip, FcγR as analyte; binding relative to GpH7-A5/GpH7-B3/GpL16-k0 = 100
Description: as §1, §2

[3] = target: T2, FcγRIIb extracellular domain with C-terminal His tag (human, UniProt P31994 43-217); assay: as above
T2 construct: extracellular domain; Soluble receptor expressed in FreeStyle293 cells; analyte in Biacore; also called FcgRIIb; 2b; not shown: His tag at the C terminus
T2 sequence (looked up): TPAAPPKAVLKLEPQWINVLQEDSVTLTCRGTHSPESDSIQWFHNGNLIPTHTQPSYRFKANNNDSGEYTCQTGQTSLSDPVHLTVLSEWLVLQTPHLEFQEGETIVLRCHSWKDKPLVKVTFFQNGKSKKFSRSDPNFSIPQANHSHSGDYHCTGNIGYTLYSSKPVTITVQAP
Description: as §1, §2

T1 sequence (P12314 16-292): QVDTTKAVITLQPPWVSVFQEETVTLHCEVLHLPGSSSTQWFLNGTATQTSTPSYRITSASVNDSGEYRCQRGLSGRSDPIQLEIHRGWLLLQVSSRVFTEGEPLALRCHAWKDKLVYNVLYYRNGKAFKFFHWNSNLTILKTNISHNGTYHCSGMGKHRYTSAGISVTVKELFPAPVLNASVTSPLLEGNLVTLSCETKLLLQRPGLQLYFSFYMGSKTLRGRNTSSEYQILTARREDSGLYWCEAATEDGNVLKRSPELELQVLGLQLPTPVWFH

B2: GpH7-A5/GpH7-B3 variant I336_19Q/GpL16-k0 (antibody, human IgG1, kappa)
heavy 1: not shown
heavy 2: not shown
light: DIVMTQSPLSLPVTPGEPASISCQASESLVHSNRNTYLHWYLQKPGQSPQLLIYKVSNRFSGVPDRFSGSGSGTDFTLKISRVEAEDVGVYYCSQNTHVPPTFGQGTKVEIERTVAAPSVFIFPPSDEQLKSGTASVVCLLNNFYPREAKVQWKVDNALQSGNSQESVTEQDSKDSTYSLSSTLTLSKADYEKHKVYACEVTHQGLSSPVTKSFNRGEC
notes: He Ab: heterodimerized anti-glypican-3 IgG1, substitution in one H chain only; also called He Ab I336Q
He_1a/2b (Ia/IIb) [1]: 1.78
He/Con_1a (Ia binding) [2]: 104 % of control (control = 100)
He/Con_2b (IIb binding) [3]: 58.2 % of control (control = 100)

B3: GpH7-A5/GpH7-B3 variant I336_13S/GpL16-k0 (antibody, human IgG1, kappa)
heavy 1: not shown
heavy 2: not shown
light: DIVMTQSPLSLPVTPGEPASISCQASESLVHSNRNTYLHWYLQKPGQSPQLLIYKVSNRFSGVPDRFSGSGSGTDFTLKISRVEAEDVGVYYCSQNTHVPPTFGQGTKVEIERTVAAPSVFIFPPSDEQLKSGTASVVCLLNNFYPREAKVQWKVDNALQSGNSQESVTEQDSKDSTYSLSSTLTLSKADYEKHKVYACEVTHQGLSSPVTKSFNRGEC
notes: He Ab: heterodimerized anti-glypican-3 IgG1, substitution in one H chain only; also called He Ab I336S
He_1a/2b (Ia/IIb) [1]: 1.22
He/Con_1a (Ia binding) [2]: 102 % of control (control = 100)
He/Con_2b (IIb binding) [3]: 83.7 % of control (control = 100)

B6: GpH7-A5/GpH7-B3 variant E333_13S/GpL16-k0 (antibody, human IgG1, kappa)
heavy 1: not shown
heavy 2: not shown
light: DIVMTQSPLSLPVTPGEPASISCQASESLVHSNRNTYLHWYLQKPGQSPQLLIYKVSNRFSGVPDRFSGSGSGTDFTLKISRVEAEDVGVYYCSQNTHVPPTFGQGTKVEIERTVAAPSVFIFPPSDEQLKSGTASVVCLLNNFYPREAKVQWKVDNALQSGNSQESVTEQDSKDSTYSLSSTLTLSKADYEKHKVYACEVTHQGLSSPVTKSFNRGEC
notes: He Ab: heterodimerized anti-glypican-3 IgG1, substitution in one H chain only; also called He Ab E333S
He_1a/2b (Ia/IIb) [1]: 1.26
He/Con_1a (Ia binding) [2]: 103 % of control (control = 100)
He/Con_2b (IIb binding) [3]: 81.8 % of control (control = 100)

B7: GpH7-A5/GpH7-B3 variant E333_16H/GpL16-k0 (antibody, human IgG1, kappa)
heavy 1: not shown
heavy 2: not shown
light: DIVMTQSPLSLPVTPGEPASISCQASESLVHSNRNTYLHWYLQKPGQSPQLLIYKVSNRFSGVPDRFSGSGSGTDFTLKISRVEAEDVGVYYCSQNTHVPPTFGQGTKVEIERTVAAPSVFIFPPSDEQLKSGTASVVCLLNNFYPREAKVQWKVDNALQSGNSQESVTEQDSKDSTYSLSSTLTLSKADYEKHKVYACEVTHQGLSSPVTKSFNRGEC
notes: He Ab: heterodimerized anti-glypican-3 IgG1, substitution in one H chain only; also called He Ab E333H
He_1a/2b (Ia/IIb) [1]: 1.21
He/Con_1a (Ia binding) [2]: 101 % of control (control = 100)
He/Con_2b (IIb binding) [3]: 83.3 % of control (control = 100)

B8: GpH7-A5/GpH7-B3 variant I336_20W/GpL16-k0 (antibody, human IgG1, kappa)
heavy 1: not shown
heavy 2: not shown
light: DIVMTQSPLSLPVTPGEPASISCQASESLVHSNRNTYLHWYLQKPGQSPQLLIYKVSNRFSGVPDRFSGSGSGTDFTLKISRVEAEDVGVYYCSQNTHVPPTFGQGTKVEIERTVAAPSVFIFPPSDEQLKSGTASVVCLLNNFYPREAKVQWKVDNALQSGNSQESVTEQDSKDSTYSLSSTLTLSKADYEKHKVYACEVTHQGLSSPVTKSFNRGEC
notes: He Ab: heterodimerized anti-glypican-3 IgG1, substitution in one H chain only; also called He Ab I336W
He_1a/2b (Ia/IIb) [1]: 4.28
He/Con_1a (Ia binding) [2]: 86.7 % of control (control = 100)
He/Con_2b (IIb binding) [3]: 20.3 % of control (control = 100)

The next lines start with the values.

He_1a/2b (Ia/IIb) [1]: 2.52
He/Con_1a (Ia binding) [2]: 102 % of control (control = 100)
He/Con_2b (IIb binding) [3]: 40.5 % of control (control = 100)
B1: GpH7-A5/GpH7-B3 variant P329_02A/GpL16-k0 (antibody, human IgG1, kappa)
heavy 1: not shown
heavy 2: not shown
light: DIVMTQSPLSLPVTPGEPASISCQASESLVHSNRNTYLHWYLQKPGQSPQLLIYKVSNRFSGVPDRFSGSGSGTDFTLKISRVEAEDVGVYYCSQNTHVPPTFGQGTKVEIERTVAAPSVFIFPPSDEQLKSGTASVVCLLNNFYPREAKVQWKVDNALQSGNSQESVTEQDSKDSTYSLSSTLTLSKADYEKHKVYACEVTHQGLSSPVTKSFNRGEC
notes: He Ab: heterodimerized anti-glypican-3 IgG1, substitution in one H chain only; also called He Ab P329A

He_1a/2b (Ia/IIb) [1]: 1.22
He/Con_1a (Ia binding) [2]: 98.7 % of control (control = 100)
He/Con_2b (IIb binding) [3]: 80.8 % of control (control = 100)
B4: GpH7-A5/GpH7-B3 variant L328_18N/GpL16-k0 (antibody, human IgG1, kappa)
heavy 1: not shown
heavy 2: not shown
light: DIVMTQSPLSLPVTPGEPASISCQASESLVHSNRNTYLHWYLQKPGQSPQLLIYKVSNRFSGVPDRFSGSGSGTDFTLKISRVEAEDVGVYYCSQNTHVPPTFGQGTKVEIERTVAAPSVFIFPPSDEQLKSGTASVVCLLNNFYPREAKVQWKVDNALQSGNSQESVTEQDSKDSTYSLSSTLTLSKADYEKHKVYACEVTHQGLSSPVTKSFNRGEC
notes: He Ab: heterodimerized anti-glypican-3 IgG1, substitution in one H chain only; also called He Ab L328N

He_1a/2b (Ia/IIb) [1]: 1.21
He/Con_1a (Ia binding) [2]: 97.2 % of control (control = 100)
He/Con_2b (IIb binding) [3]: 80.2 % of control (control = 100)
B5: GpH7-A5/GpH7-B3 variant L328_01G/GpL16-k0 (antibody, human IgG1, kappa)
heavy 1: not shown
heavy 2: not shown
light: DIVMTQSPLSLPVTPGEPASISCQASESLVHSNRNTYLHWYLQKPGQSPQLLIYKVSNRFSGVPDRFSGSGSGTDFTLKISRVEAEDVGVYYCSQNTHVPPTFGQGTKVEIERTVAAPSVFIFPPSDEQLKSGTASVVCLLNNFYPREAKVQWKVDNALQSGNSQESVTEQDSKDSTYSLSSTLTLSKADYEKHKVYACEVTHQGLSSPVTKSFNRGEC
notes: He Ab: heterodimerized anti-glypican-3 IgG1, substitution in one H chain only; also called He Ab L328G
